Results reported in publication PMC5714352.

System: NucT H124N (Helicobacter pylori 26695)
Experiment: EMSA

## CAACGGCATAAAGCTTGACGATTACATTGCTAGGACATCTTTGCCCACCTGCAGGTTCACCC [substrate I (XV98, 62-mer ssDNA)]
  Kd: 2 nM
